From patent US20140080766 come the findings set out here.

For this series, the system named is E6N2 (E6 Fn3-mouse IgG2a Fc-human PKR dsRBD fusion, homodimer) C121V,C135V (in dsRBD) (Homo sapiens). Nature of the series: flow. The following applies: KD,app; E6N2 on Protein A beads; DMEM+10% FBS, 37 C, 1 h; pH presumably 7.4; avidity from bivalent dsRBD.

The substance “AllStars Negative Control siRNA (Qiagen)” showed a Kd of 3.5 nM.
